From publication PMC6355894, “Cryo-EM structure of the essential ribosome assembly AAA-ATPase Rix7” (Nature Communications, 2019)

Assays:
[1] = target: Chaetomium thermophilum Rix7 double Walker B mutant (CT Rix7 E303Q/E602Q) (Chaetomium thermophilum); assay: cryo-EM structure; CT Rix7 E303Q/E602Q at ~0.6 mg/ml after SEC in Buffer A (20 mM Tris-HCl pH 8, 150 mM NaCl, 5 mM MgCl2, 0.5 mM DTT); no ATP and no substrate added; no symmetry imposed (C1); 4.5 Å
CT Rix7 = target: T1, CT Rix7 (Thermochaetoides thermophila, UniProt G0RZG1, E303Q/E602Q); assay: cryo-EM structure of the complex ([…] A); details: co-purified nucleotide, no ATP added; 5 mM MgCl2, pH 8; nucleotide-binding pockets of D1 and D2 AAA domains; ATP geometry restrained to reference structure
T1 construct: gene CTHT_0002840; full-length (NTD residues 1-192 not seen in map), codon-optimised, pET24b, C-terminal His6, expressed in E. coli BL21(DE3)*; asymmetric homohexamer
T1 sequence (G0RZG1 entry or part of it E303Q/E602Q): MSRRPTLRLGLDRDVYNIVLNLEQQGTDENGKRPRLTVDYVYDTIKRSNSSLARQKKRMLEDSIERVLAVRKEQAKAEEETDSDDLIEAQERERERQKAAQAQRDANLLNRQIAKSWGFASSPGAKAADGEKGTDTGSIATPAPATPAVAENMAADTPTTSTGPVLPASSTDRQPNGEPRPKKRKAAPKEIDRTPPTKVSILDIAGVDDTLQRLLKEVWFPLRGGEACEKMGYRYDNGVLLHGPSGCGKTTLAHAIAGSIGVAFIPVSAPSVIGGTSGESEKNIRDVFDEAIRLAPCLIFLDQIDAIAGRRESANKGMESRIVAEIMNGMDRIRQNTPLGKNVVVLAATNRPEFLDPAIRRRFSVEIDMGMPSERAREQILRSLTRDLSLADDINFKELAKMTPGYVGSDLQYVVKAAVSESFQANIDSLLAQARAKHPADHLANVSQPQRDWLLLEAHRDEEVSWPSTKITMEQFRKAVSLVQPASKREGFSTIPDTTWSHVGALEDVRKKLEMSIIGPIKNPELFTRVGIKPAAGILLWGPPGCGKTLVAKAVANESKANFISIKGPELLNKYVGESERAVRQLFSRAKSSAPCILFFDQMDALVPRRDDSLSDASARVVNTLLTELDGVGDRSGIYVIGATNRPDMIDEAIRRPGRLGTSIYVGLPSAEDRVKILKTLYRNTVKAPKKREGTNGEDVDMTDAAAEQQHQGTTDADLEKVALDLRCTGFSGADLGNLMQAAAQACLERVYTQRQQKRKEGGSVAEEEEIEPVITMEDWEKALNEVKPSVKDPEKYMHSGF

| stoichiometry N [1] | Compound | cryo-EM structure of the complex (4.5 A) (CT Rix7) |
| --- | --- | --- |
| 6 | Chaetomium thermophilum Rix7 double Walker B mutant (CT Rix7 E303Q/E602Q) (enzyme) | – |
| – | Nc1ncnc2c1ncn2[C@@H]1O[C@H](COP(=O)(O)OP(=O)(O)OP(=O)(O)O)[C@@H](O)[C@H]1O [ATP] | In the D1 AAA domain, ATP is present in the nucleotide pockets of all six protomers |
